Measurements: paper PMC7515726

Assays:
Assay in all cases: affinity purification with mass spectrometry
[1] = target: Nuc1, acidic patch mutant nucleosome (hH2A.Dx10), biotinylated 185 bp 601 DNA (human) (UniProt P62807)
[2] = target: Nuc3, disk patch 3 mutant nucleosome (hH3.2x10, hH4x24, hH2B.Cx9), biotinylated 185 bp 601 DNA (human) (UniProt P20671)
[3] = target: Nuc2, disk patch 2 mutant nucleosome (hH2A.Dx2, hH2B.Cx8), biotinylated 185 bp 601 DNA (human) (UniProt Q71DI3)

Chain of RNF2 (RING finger protein 2) (Q9CQJ4 whole entry): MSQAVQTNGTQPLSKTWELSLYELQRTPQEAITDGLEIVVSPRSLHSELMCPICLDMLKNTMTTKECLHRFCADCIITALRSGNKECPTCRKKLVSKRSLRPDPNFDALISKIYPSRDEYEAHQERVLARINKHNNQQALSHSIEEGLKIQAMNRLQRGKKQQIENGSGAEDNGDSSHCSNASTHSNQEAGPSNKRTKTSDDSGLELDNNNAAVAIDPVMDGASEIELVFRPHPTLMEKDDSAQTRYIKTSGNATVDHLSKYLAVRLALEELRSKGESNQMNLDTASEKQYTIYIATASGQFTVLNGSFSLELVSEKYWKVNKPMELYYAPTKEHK
Chain of RUVBL2 (Q9WTM5 whole entry): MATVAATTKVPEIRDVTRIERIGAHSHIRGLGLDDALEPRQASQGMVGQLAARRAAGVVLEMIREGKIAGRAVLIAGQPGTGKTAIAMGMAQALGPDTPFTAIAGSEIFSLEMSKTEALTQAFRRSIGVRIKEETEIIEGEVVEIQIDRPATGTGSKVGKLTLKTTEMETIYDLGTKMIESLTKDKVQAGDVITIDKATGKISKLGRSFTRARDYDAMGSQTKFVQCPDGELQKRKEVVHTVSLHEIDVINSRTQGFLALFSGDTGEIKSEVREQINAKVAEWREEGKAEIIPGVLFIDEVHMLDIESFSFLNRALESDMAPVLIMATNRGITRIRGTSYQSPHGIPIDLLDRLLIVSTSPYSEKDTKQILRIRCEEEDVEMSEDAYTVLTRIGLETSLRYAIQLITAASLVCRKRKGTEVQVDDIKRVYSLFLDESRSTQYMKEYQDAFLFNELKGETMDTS
Chain of RUVBL1 (P60122 whole entry): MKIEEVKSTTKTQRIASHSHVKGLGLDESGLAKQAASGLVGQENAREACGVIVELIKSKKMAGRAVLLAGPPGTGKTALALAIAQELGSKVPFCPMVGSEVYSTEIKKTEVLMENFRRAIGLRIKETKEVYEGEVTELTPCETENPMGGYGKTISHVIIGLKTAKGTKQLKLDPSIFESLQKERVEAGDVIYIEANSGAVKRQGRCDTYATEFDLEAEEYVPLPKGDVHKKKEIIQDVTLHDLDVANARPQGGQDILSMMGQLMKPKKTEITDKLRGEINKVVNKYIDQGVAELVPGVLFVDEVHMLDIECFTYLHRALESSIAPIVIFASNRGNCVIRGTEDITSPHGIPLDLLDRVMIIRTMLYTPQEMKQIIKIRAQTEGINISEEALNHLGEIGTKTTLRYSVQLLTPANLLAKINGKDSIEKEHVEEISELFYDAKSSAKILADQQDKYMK

Substance | fold decrease in binding vs wild-type nucleosome [1] [fold] | fold decrease in binding vs wild-type nucleosome [2] [fold] | fold decrease in binding vs wild-type nucleosome [3] [fold]
methylcytosine dioxygenase Tet1 (from UniProt Q3URK3 1-2039) (enzyme) | 1.8 | – | –
RNF2 (RING finger protein 2) (from UniProt Q9CQJ4 1-336) (natural protein) | 1.5 | – | –
RUVBL1 (from UniProt P60122 1-456) (natural protein) | – | 1.33 | –
HMGN2 (high mobility group nucleosome-binding domain-containing protein 2) (from UniProt P09602 1-90) (natural protein) | 27 | – | 13
RUVBL2 (from UniProt Q9WTM5 1-463) (natural protein) | – | 1.38 | –
DNMT1 DNA methyltransferase (from UniProt P13864 1-1620) (enzyme) | 1.72 | – | –
